Assays:
Assay in all cases: In vitro kinase assay (autophosphorylation) of receptor expressed in COS-7 cells
Type in all cases: biochemical
Settings in all cases: 10 μM peptide, FIG. 5
ALK-7 = molecular target: T1, ALK-7 (Homo sapiens, UniProt Q8NER5)
T1 construct: made in house; host or cells: COS-7 cells (transfected, immunoprecipitated)
T1 sequence (Q8NER5 21-493): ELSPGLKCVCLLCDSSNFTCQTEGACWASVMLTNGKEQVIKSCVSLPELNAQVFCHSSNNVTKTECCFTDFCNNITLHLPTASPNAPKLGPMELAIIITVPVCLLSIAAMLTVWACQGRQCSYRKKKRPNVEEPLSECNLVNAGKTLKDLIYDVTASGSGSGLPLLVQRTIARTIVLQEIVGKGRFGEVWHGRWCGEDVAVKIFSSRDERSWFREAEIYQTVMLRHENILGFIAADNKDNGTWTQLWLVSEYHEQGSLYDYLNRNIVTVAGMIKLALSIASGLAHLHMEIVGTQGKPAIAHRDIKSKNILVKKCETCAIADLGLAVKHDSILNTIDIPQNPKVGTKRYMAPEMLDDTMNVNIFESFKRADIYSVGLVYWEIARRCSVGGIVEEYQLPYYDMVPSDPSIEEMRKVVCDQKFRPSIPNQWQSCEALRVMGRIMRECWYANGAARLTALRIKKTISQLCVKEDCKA
Experimental: (§1) For in vitro kinase assay of type I and type II TGFβ family receptors, p38α and SAPKα2 kinases, COS-7 cells were transfected with the kinase expression vectors or the control empty pcDNA3 vector using the DEAE-dextran method. Proteins were extracted in a lysis buffer (50 mM Tris-HCl, pH 7.5, 50 mM NaCl, 1% NP-40, 10 μg/mL aprotinin, 0.1 mM PMSF). HA-tagged proteins (ALK1 to ALK7, p38R, SAPKR2) were immunoprecipitated with anti-HA antibody (12CA5; Roche); His6-tagged proteins (type II receptors) were precipitated with Ni-NTA agarose (Qiagen). The precipitates were washed in extraction buffer, with 20 mM imidazole for Ni-NTA agarose-precipitated proteins, and two times with kinase buffer (20 mM HEPES, pH 7.4, 10 mM MgCl2, 2 mM MnCl2, 1 mM DTT). The kinase reaction was initiated by addition of 20 μL of kinase buffer containing 0.5 μCi of [γ-32P]ATP, 5.0 μM ATP, and inhibitory peptides at a final concentration of 10 μM. The reaction was performed at 22° C. for 20 min and terminated by addition of SDS-containing sample buffer and boiling for 5 min. The reaction products were analyzed by SDS-PAGE and exposure in a Fuji X2000 phosphorimager. Equal loading was controlled by immunoblotting aliquots of the samples with a HA probe (Y-11; Santa Cruz) or anti-His antibody (Qiagen).
(§2) To evaluate whether the substrate-mimicking peptides affect kinases of type I and type II reptors of the TGFβ family, we studied the influence of peptides on authophosphorylation of all known mammalian type I receptors [ALK-1, ActR-I (ALK-2), BMPR-IA (ALK-3), ActR-IB (ALK-4), TβR-I (ALK-5), BMPR-IB (ALK-6), and ALK-7], TβRII, ActR-II, BMPR-II, p38R, and SAPKR2 (FIG. 5). The kinases were expressed in COS-7 cells and purified by using specific anti-tag antibodies or Ni-NTA agarose, and kinase activity was tested in the presence of peptides.

ActR-I (ALK-2) = molecular target: T2, ActR-I (ALK-2) (Homo sapiens, UniProt Q04771)
T2 sequence (Q04771 21-509): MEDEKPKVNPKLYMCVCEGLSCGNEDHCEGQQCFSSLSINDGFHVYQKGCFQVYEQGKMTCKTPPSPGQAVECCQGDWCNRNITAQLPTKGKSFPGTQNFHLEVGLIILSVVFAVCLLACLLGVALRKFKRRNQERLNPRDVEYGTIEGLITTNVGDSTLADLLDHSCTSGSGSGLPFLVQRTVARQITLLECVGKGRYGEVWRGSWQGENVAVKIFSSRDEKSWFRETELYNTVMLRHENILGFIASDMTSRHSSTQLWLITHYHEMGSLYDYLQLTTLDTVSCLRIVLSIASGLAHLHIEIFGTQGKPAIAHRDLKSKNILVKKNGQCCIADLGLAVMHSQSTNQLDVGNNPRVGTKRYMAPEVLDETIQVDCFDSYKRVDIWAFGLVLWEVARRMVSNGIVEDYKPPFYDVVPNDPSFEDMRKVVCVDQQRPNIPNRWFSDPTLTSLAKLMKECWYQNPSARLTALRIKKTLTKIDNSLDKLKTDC
Experimental: as §1, §2

BMPR-IB (ALK-6) = molecular target: T3, BMPR-IB (ALK-6) (Homo sapiens, UniProt O00238)
T3 construct: made in house; host or cells: COS-7 cells (transfected, immunoprecipitated)
Experimental: as §1, §2

ActR-II = molecular target: T4, ActR-II (Homo sapiens, UniProt P27037)
T4 construct: made in house; host or cells: COS-7 cells (transfected, Ni-NTA precipitated)
Experimental: as §1, §2

ActR-IB (ALK-4) = molecular target: T5, ActR-IB (ALK-4) (Homo sapiens, UniProt P36896)
T5 construct: made in house; host or cells: COS-7 cells (transfected, immunoprecipitated)
T5 sequence (P36896 24-505): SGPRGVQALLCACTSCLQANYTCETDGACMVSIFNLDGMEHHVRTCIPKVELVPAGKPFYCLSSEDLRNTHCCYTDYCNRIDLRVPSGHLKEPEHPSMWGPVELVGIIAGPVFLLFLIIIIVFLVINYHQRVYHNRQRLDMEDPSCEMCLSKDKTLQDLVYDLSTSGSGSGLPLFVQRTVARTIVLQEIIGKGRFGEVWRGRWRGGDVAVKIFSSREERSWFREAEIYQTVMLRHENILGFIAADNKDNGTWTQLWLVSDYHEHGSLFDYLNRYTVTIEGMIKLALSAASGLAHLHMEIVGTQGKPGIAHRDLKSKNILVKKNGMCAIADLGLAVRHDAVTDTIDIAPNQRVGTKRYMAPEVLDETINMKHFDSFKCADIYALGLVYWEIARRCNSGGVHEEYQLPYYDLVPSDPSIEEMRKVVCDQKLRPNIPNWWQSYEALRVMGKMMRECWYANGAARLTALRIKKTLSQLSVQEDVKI
Experimental: as §1, §2

BMPR-IA (ALK-3) = molecular target: T6, BMPR-IA (ALK-3) (Homo sapiens, UniProt P36894)
T6 construct: made in house; host or cells: COS-7 cells (transfected, immunoprecipitated)
Experimental: as §1, §2

T3 sequence (O00238 14-502): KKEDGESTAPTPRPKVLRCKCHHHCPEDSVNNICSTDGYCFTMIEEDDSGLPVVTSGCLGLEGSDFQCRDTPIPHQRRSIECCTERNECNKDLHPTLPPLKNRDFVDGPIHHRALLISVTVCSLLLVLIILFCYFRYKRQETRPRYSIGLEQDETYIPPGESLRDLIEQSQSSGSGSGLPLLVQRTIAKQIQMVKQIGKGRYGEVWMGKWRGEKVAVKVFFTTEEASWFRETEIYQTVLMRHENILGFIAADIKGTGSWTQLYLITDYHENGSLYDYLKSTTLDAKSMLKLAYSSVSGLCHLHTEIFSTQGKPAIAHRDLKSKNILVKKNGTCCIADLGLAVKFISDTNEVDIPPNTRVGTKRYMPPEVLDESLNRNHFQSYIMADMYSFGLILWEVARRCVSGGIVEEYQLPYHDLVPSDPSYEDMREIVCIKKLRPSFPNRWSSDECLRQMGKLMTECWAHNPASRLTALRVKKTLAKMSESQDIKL
T4 sequence (P27037 20-513): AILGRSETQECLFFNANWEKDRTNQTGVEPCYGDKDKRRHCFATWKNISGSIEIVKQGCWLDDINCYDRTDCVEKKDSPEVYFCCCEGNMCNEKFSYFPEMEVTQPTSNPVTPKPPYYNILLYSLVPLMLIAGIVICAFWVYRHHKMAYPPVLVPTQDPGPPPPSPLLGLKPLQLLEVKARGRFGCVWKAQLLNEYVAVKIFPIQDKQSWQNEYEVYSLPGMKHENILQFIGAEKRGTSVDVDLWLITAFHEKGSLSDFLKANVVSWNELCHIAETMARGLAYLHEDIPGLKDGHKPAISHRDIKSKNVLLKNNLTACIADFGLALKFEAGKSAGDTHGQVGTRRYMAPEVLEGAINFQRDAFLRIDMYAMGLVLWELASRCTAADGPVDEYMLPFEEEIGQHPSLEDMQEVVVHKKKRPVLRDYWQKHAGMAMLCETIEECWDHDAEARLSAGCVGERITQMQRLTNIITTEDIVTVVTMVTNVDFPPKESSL
T6 sequence (P36894 24-532, species assumed): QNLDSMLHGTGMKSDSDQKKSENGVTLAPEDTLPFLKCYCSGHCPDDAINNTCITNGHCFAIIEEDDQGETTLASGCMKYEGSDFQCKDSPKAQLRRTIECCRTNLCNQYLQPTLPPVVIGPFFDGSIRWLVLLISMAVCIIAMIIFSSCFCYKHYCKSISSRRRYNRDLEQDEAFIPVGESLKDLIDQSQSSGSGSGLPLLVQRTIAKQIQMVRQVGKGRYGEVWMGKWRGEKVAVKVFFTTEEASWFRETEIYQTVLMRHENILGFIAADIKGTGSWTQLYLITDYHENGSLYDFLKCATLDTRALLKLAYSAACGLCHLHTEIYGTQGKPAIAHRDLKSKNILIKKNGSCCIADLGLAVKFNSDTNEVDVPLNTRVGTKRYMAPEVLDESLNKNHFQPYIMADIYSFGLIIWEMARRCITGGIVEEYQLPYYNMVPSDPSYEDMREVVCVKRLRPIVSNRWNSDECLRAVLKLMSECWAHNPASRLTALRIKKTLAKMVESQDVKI

RQIKIWFQNRRMKWKKTQMGSPSVRCSSMS (listed as Homo sapiens) [antp-Sm2S, penetratin fused to the C-terminus of wild-type Smad2]
without any effect: Effect on ALK-7 kinase (ALK-7) | Effect on ActR-I (ALK-2) kinase (ActR-I (ALK-2)) | Effect on BMPR-IB (ALK-6) kinase (BMPR-IB (ALK-6)) | Effect on ActR-II kinase (ActR-II) | Effect on ActR-IB (ALK-4) kinase (ActR-IB (ALK-4)) | Effect on BMPR-IA (ALK-3) kinase (BMPR-IA (ALK-3))

RQIKIWFQNRRMKWKKTQMGSPSVRCSAMA (listed as Homo sapiens) [antp-Sm2A]
without any effect: Effect on ALK-7 kinase (ALK-7) | Effect on ActR-I (ALK-2) kinase (ActR-I (ALK-2)) | Effect on BMPR-IB (ALK-6) kinase (BMPR-IB (ALK-6)) | Effect on ActR-II kinase (ActR-II) | Effect on ActR-IB (ALK-4) kinase (ActR-IB (ALK-4)) | Effect on BMPR-IA (ALK-3) kinase (BMPR-IA (ALK-3))

From US20050136043A1, “TGFbeta signaling inhibitors” (Ludwig Institute for Cancer Research, priority 2003, published 2005)
